Data on 8 substances can be found in paper PMC8528861, “Structural and functional analysis of target recognition by the lymphocyte adaptor protein LNK” (Nature Communications, 2021).

The target in assay [1] is M. musculus LNK SH2 domain (residues 324–446), wild type (mouse) (UniProt O09039). Put plainly: SPR; competition: biotinylated IL6ST pY757 peptide immobilised on a streptavidin chip; 0.1–0.5 μM WT LNK SH2 domain pre-incubated with phosphopeptide and flowed over; 10 mM HEPES pH 7.4, 150 mM NaCl, 3.4 mM EDTA, 0.005% Tween 20; response normalised to LNK only, IC50 fit. (SPR reads the build-up and loss of mass on a sensor chip optically.)

Assay [2] addresses biotinylated JAK2 pY813 peptide. Put plainly: SPR; direct binding: biotinylated JAK2 pY813 immobilised on a streptavidin chip; LNK and SH2B SH2 domains flowed over for 420 s at 30 μL/min; 10 mM HEPES pH 7.4, 150 mM NaCl, 3.4 mM EDA, 0.005% Tween 20.

M. musculus LNK SH2 domain (residues 324–446), wild type (mouse), sequence (O09039 324-446): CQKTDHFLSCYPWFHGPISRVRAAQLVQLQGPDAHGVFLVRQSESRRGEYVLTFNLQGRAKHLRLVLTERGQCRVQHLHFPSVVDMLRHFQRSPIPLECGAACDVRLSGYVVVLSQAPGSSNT

As for JAK2 pY813 peptide mutant +1A, the IC50 – broadly, the concentration that gives 50% inhibition – in assay [1] is 430 nM. This lies in the sub-micromolar range.
Turning to JAK2 pY813 peptide mutant +3F, the IC50 in assay [1] came out at 1430 nM.
Still for that read-out and setting: to JAK2 pY813 peptide mutant +4A belongs 90 nM.
Still for that read-out and setting: to JAK2 pY813 peptide mutant +5A belongs 300 nM; to JAK2 pY813 peptide mutant −1A, 150 nM.
On to “M. musculus LNK SH2 domain R387C (from UniProt O09039 325-438) (domain or fragment)”, for which the fold loss in affinity relative to the WT SH2 domain in assay [2] is 3 fold.
On the same count and under the same terms, to “M. musculus LNK SH2 domain R387H (from UniProt O09039 325-438) (domain or fragment)” belongs 10 fold.
Take “mouse SH2B SH2 domain (from UniProt Q91ZM2 527-625) (domain or fragment)”: the Kd – broadly, a measure of binding affinity in units of concentration – in assay [2] was determined as 100 nM.
